Assay [1] has as its target T1, FcγRI α subunit-GST fusion (UniProt P12314 16-292).
T1 construct: ECD-6His-GST fusion expressed in 293 cells; not shown: glutathione S transferase (GST)
As to the kind of experiment: ELISA, monomeric IgG at 10 ug/ml on plate-coated FcγRI α subunit-GST fusion.

Assay [2] has as its target T2, FcγRIIa α subunit ECD-6His-GST fusion protein (UniProt P12318 34-217).
T2 construct: Expressed in 293 cells; not shown: glutathione S transferase (GST)
T2 sequence: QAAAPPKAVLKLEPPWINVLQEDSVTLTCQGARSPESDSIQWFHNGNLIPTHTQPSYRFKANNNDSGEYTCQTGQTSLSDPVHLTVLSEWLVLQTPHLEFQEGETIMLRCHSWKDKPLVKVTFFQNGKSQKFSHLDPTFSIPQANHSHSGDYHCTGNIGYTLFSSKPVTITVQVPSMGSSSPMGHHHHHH
As to the kind of experiment: ELISA, E27:chimeric IgE:VEGF (1:1:2) immune complex on plate-coated receptor ECD-6His-GST. A general note: In an ELISA, binding on a coated surface is turned into a signal by an enzyme label.

The target of assay [3] is T3, FcγRIIb α subunit ECD-6His-GST fusion protein (UniProt P31994 43-217).
T3 construct: Expressed in 293 cells; also called FcγRIlb; not shown: glutathione S transferase (GST)
T3 sequence: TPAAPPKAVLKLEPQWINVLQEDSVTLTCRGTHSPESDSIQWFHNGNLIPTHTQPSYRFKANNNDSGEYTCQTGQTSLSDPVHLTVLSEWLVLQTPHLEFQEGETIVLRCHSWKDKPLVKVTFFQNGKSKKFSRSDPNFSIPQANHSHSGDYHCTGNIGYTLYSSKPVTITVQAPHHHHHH
Described as above.

In assay [4] the target is T4, FcγRIIIa α subunit ECD-6His-GST fusion protein (UniProt P08637 17-208).
T4 construct: Expressed in 293 cells; also called FcγIII; FcγIIIa; not shown: glutathione S transferase (GST)
T4 sequence (P08637 other isoform, or with tags, fused parts or gaps, form in doubt): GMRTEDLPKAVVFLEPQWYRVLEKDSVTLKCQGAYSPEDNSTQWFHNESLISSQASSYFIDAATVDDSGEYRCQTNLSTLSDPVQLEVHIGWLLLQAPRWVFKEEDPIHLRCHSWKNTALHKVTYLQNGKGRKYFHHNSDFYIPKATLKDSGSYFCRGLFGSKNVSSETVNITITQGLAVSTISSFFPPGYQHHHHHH
Described as above.

T1 sequence (P12314 other isoform, or with tags, fused parts or gaps, form in doubt): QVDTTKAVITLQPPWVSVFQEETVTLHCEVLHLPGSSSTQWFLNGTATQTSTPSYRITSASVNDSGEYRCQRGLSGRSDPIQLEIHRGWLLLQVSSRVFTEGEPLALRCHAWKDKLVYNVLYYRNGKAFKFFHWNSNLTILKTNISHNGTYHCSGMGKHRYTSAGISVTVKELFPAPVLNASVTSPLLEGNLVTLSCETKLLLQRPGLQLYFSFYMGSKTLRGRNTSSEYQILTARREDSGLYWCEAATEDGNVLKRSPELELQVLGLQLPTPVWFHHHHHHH

B1: E27 anti-IgE antibody, wild type (humanized IgG1) (antibody)
heavy: not shown
light: DIQLTQSPSSLSASVGDRVTITCRASKPVDGEGDSYMNWYQQKPGKAPKLLIYAASYLESGVPSRFSGSGSGTDFTLTISSLQPEDFATYYCQQSHEDPYTFGQGTKVEIKRTVAAPSVFIFPPSDEQLKSGTASVVCLLNNFYPREAKVQWKVDNALQSGNSQESVTEQDSKDSTYSLSSTLTLSKADYEKHKVYACEVTHQGLSSPVTKSFNRGEC
notes: In the FcγRIIa, FcγRIIb and FcγRIIIa ELISAs it stood as an immune complex E27:chimeric IgE:VEGF (1:1:2); in the FcγRI ELISA as monomeric IgG; also called recombinant anti-IgE E27; wt
As for B1, the “binding as a percentage of the wild type” value in assay [1], in assay [2], in assay [3] and in assay [4] was 100 % of wild type in each case.

B2: E27 anti-IgE antibody mutant K320A (antibody)
heavy: not shown
light: B1 light
notes: also called K320A (E27 background)
Turning to B2, the “binding as a percentage of the wild type” value was 102 % of wild type in assay [1], 94 % of wild type in assay [2], 83 % of wild type in assay [3] and 72 % of wild type in assay [4].

B3: E27 anti-IgE antibody mutant K322A (antibody)
heavy: not shown
light: B1 light
notes: also called K322A (E27 background)
Regarding B3, the “binding as a percentage of the wild type” value is 90 % of wild type in assay [1], 109 % of wild type in assay [2], 101 % of wild type in assay [3] and 90 % of wild type in assay [4].

B4: E27 anti-IgE antibody mutant P331A (antibody)
heavy: not shown
light: B1 light
notes: also called P331A (E27 background)
For the molecule B4, the “binding as a percentage of the wild type” value in assay [1] was 74 % of wild type; in assay [2], 86 % of wild type; in assay [3], 58 % of wild type; in assay [4], 73 % of wild type.

B5: E27 anti-IgE antibody mutant P329A (antibody)
heavy: not shown
light: B1 light
notes: also called P329A (E27 background)
Turning to B5, the “binding as a percentage of the wild type” value in assay [1] was 104 % of wild type; in assay [2], 111 % of wild type; in assay [3], 96 % of wild type; in assay [4], 85 % of wild type.

B6: E27 anti-IgE antibody mutant E318A (antibody)
heavy: not shown
light: B1 light
notes: also called E318A (E27 background)
With B6, the “binding as a percentage of the wild type” value in assay [1] was 93 % of wild type; in assay [2], 113 % of wild type; in assay [3] it was 106 % of wild type; in assay [4], 104 % of wild type.

Values taken from patent publication US20030166868A1 (Genentech, published 2003).
